In patent US7700353B2, “Compositions and methods for inducing apoptosis in tumor cells” (E-P Therapeutics, Inc., priority 1998, dated 2010):

Tests used:
[1] = system: neuroblastoma SK-N-F1 cells; assay: Soft agar colony formation (hEb peptide); type: cell-based, human; conditions: 3.2 μM
Protocol: The effect of hEb-peptide on in vitro colony formation was tested in the presence or absence of either the mature hlGF-I or fetal bovine serum (FIG. 12). Human neuroblastoma SK-N-F1 cells (10^4) were mixed with 0.4% soft agar supplemented with or without hEb peptide (3.2 µM), IGF-I (5 nM) and/or fetal bovine serum (2.5%), as indicated. The cell mixtures were seeded on top of a solidified basal medium DMEM/F12 (1:1) containing 0.5% agar. Medium supplemented with various peptides or serum were overlaid on top of the solidified cell layer followed by a two-week period incubation at 37° C. in a 5% CO2 humidified incubator. The percentage of cells formed into colonies with a diameter greater than 100 µm Macpherson, Tissue culture methods and applications, pp 276-80: N.Y. Academic Press, 1973) were scored in triplicate and subjected to Student t-test analysis. At least three independent assays under each treatment conditions were carried out.

[2] = system: CCD-1112SK primary baby foreskin cells
Description: Apoptosis of cells can also be detected by terminal deoxynucleotidyl transferase mediated dUTP nick end labeling (TUNEL) assay.

[3] = system: ovarian cancer cells (SKOV-3); assay: Apoptosis observed under microscope; type: cell-based, human; conditions: 0.1-3.4 μM, 4 hours
Protocol: FIG. 22 depicts apoptosis in ovarian cancer cells (SKOV) induced by various amounts of rtEa4-peptide. SKOV cells were treated with various amounts (0.1-3.4 μM) for 4 hours and observed under a microscope. Arrows indicate apoptotic cells.
Killing of cancer cells by E-peptide could be the consequence of apoptosis or necrosis. To differentiate these two possibilities, MDA-MB-231 (C) cells were grown in culture in the presence of about 1.5 μM of trout Ea4-peptide. After about two hours of incubation the cells were observed under a microscope. […] FIG. 22 presents the results of the effect of trout Ea4-peptide on induction of apoptosis in ovarian cancer cells (SKOV-3).

293GP cells = assay: Cell attachment assay; type: cell-based, human; conditions: 0.8 μM, serum-free medium, four days, after shaking
Protocol: To confirm whether treatment of transformed cells with the Ea-4 peptide could result in increased attachment of the cells to the culture dish, 293GP cells were cultured in a serum-free basal medium supplemented with Ea-4-peptide (0.8 µM) or 10% FBS, respectively, in 6-well culture chambers. After four days, the culture medium was removed, and cells were rinsed twice with PBS containing 0.02% EDTA, fresh PBS was added, and the culture plates shaken 20 times manually.

HT1080 cells = assay: Matrigel invasion assay; type: cell-based, human; conditions: for # invaded cells/view (MIC): Matrigel insert; for # invaded cells/view (MIC) / # invaded cells/view (CIC): 24 hours; for # invaded cells/view (CIC): control insert
Protocol: Invasion assays were conducted in BIOCOAT MATRIGEL invasion chambers following the procedure provided by Becton Dickinson Labware (Bedford, Mass.; 40480 and 40481 guidelines). According to these procedures, 1×10^6 of HT1080 cells in DMEM supplemented with 1.25% FBS, with Ea-4 peptide (0.17 µM and 0.34 µM), or the same amount of the control protein, were plated in each insert of the Matrigel or control invasion chambers. The inserts were placed in the respective chambers containing DMEM medium supplemented with 10% FBS, and the chambers were incubated at 37° C. under a humidified atmosphere of 5% CO2 for 24 hours. After removal of the non-invaded cells with cotton swabs, the invaded cells on the other side of the membranes were stained with the Diff-Quick T stain (Becton Dickinson Labware, Bedford, Mass.) and observed under an Olympic inverted microscope (magnification, 200×). Control proteins were prepared from E. coli cells carrying the expression plasmid without the Ea-4-peptide gene by the same purification method (Tian et al., 1999). The assay was repeated three times.

[4] = system: HT-29 or MDA-MB-231 cells; assay: Colony formation assay in semi-solid medium (Ea-4 peptide); type: cell-based, human; conditions: increasing concentrations (0.4 to 1.6 μM), 1.25% FBS, vs control protein
Protocol: Colony formation assays were conducted following the method described by Yang (1975). About 2×10^4 of HT-29 (colon cancer cells) or MDA-MB-231 cells (aggressive breast cancer cells) at log phase were plated in their respective basal medium containing 1.25% FBS and 0.5% purified agar (Difco laboratories), and supplemented with various concentrations (0.4 to 1.6 µM) of the recombinant rainbow trout Ea-4 peptide, or the same amount of the control protein, in 6-well culture chambers. After the medium is solidified, each well is overlaid with 1 mL of the basal medium (containing 1.25% FBS) supplemented with same concentration of the trout Ea-4 peptide. The plates were incubated at 37° C. in a humidified incubator with 5% CO2 and examined daily under an inverted microscope for 2-3 weeks. Colonies were observed under an Olympic inverted microscope equipped with phase contrast objective lenses (final magnification: 40×). Colonies with sizes ≥50 µm were scored. The viability of cells at the conclusion of the experiment was confirmed by dye extrusion assay with tryptan blue. The assay was conducted two times.

B1: hEb: chemically synthesized human Eb peptide of pro-IGF-I, 77 amino acid residues (SEQ ID NO:1) (peptide, listed as Homo sapiens)
chain: RSVRAQRHTDMPKTQKYQPPSTNKNTKSQRRKGWPKTHPGGEQKEGTEASLQIRGKKKEQRREIGSRNAECRGKKGK
inhibition of colony formation ([1]; absence of serum and growth factors, colonies >100 μm): 64% | inhibitory effect on anchorage-independent growth ([1]; over all medium conditions): 59-73% | inhibition of colony formation ([1]; presence of FBS (2.5%)): 73% | inhibition of colony formation ([1]; presence of hIGF-I (5 nM)): 59% | Apoptosis [2]: −

B2: rtEa-4: recombinant Ea-4 peptide of rainbow trout pro-IGF-I, 74 amino acid residues (SEQ ID NO: 2) (protein)
chain: RSVRAQRHTDMPRTPKVSTAVQNVDRGTERRTAQHPDKTKTKKKPLSGHSHPSCKEVHQKNSSRGNTGGRNYRM
modifications: Oncorhynchus mykiss
apoptosis (microscopy) [3]: dose-dependent induction of apoptosis | attachment of cells to the culture chamber (293GP cells): remained attached to the culture chamber | % Invasion (HT1080 cells; 0.17 μM): 19% | % Reduction of invasion (HT1080 cells; 0.17 μM): 52% | # invaded cells/view (MIC) (HT1080 cells; 0.17 μM): 30 ± 5 cells/view | # invaded cells/view (CIC) (HT1080 cells; 0.17 μM): 157 ± 6 cells/view | % Invasion (HT1080 cells; 0.34 μM): 15% | % Reduction of invasion (HT1080 cells; 0.34 μM): 62% | # invaded cells/view (MIC) (HT1080 cells; 0.34 μM): 24 ± 1 cells/view | # invaded cells/view (CIC) (HT1080 cells; 0.34 μM): 157 ± 6 cells/view | invasive activity (HT1080 cells; 0.17 and 0.34 μM): dose-dependent reduction | colonies developed in soft agar medium [4]: fewer colonies
